# From US20260209386A1 (MYTHIC THERAPEUTICS, published 2026)
# T1: Human PTK7 Protein, His Tag, Acro Biosystems (human, UniProt Q13308 31-704)
# T1 construct: Bought recombinant protein; also called CCK4; not shown: His tag
# T1 sequence: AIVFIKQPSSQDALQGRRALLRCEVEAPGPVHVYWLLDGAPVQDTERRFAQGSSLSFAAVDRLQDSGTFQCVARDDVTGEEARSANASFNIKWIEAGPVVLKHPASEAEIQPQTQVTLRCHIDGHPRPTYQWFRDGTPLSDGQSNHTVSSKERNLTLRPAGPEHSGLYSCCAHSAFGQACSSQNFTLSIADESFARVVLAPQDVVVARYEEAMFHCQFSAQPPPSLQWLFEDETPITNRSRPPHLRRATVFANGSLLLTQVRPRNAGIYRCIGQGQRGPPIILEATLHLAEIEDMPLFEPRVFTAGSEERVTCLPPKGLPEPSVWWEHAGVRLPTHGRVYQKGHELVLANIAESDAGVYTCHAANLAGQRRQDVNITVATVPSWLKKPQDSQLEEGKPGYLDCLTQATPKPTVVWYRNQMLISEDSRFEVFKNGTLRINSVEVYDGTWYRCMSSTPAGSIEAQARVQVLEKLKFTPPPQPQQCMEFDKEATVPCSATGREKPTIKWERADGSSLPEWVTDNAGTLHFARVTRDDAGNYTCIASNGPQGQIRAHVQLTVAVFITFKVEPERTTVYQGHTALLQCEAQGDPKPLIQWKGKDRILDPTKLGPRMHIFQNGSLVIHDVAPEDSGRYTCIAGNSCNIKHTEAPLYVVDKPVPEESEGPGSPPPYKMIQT
# Target: T1, Human PTK7 Protein, His Tag, Acro …
# Experiment: BLI, anti-human Fc capture, 50 nM PTK7; 2 = substantially similar binding relative to parent
row,binding result,Binder
1,binds,"MYT11119 (antibody, V domains shown, MYT9412 HC variant) VH: EVQLVESGGGLVQPGGSLRLSCTASGFSLSTYAMSWVRQAPGKGLEWVGMIYINDNHYYASWAKGRFTISRDTSKNTVYLQMNSLRAEDTAVYFCARDIGISYYIGVSLWGQGTLVTVSS VL: EIVMTQSPSTLSASVGDRVIITCQASQSIGTRLSWYQQKPGKAPKLLIYGASKLATGVPSRFSGSGSGAEFTLTISSLQPDDFATYYCLGEYSYTTTDGIAFGQGTKLTVL"
2,binds,"MYT11121 (antibody, V domains shown, MYT9412 HC variant) VH: EVQLVESGGGLVQPGGSLRLSCTASGFSLSTYAMSWVRQAPGKGLEWVGMIYINDNTYHASWAKGRFTISRDTSKNTVYLQMNSLRAEDTAVYFCARDIGISYYIGVSLWGQGTLVTVSS VL: EIVMTQSPSTLSASVGDRVIITCQASQSIGTRLSWYQQKPGKAPKLLIYGASKLATGVPSRFSGSGSGAEFTLTISSLQPDDFATYYCLGEYSYTTTDGIAFGQGTKLTVL"
3,binds,"MYT11129 (antibody, V domains shown, MYT9412 HC variant) VH: EVQLVESGGGLVQPGGSLRLSCTASGFSLSTYAMSWVRQAPGKGLEWVGMIYINDNTYYASWAKGRFTISRDTSKNTVYLQMNSLRAEDTAVYFCAHDIGISYYIGVSLWGQGTLVTVSS VL: EIVMTQSPSTLSASVGDRVIITCQASQSIGTRLSWYQQKPGKAPKLLIYGASKLATGVPSRFSGSGSGAEFTLTISSLQPDDFATYYCLGEYSYTTTDGIAFGQGTKLTVL"
4,binds,"MYT11127 (antibody, V domains shown, MYT9412 HC variant) VH: EVQLVESGGGLVQPGGSLRLSCTASGFSLSTYAMSWVRQAPGKGLEWVGMIYINDNTYYASWAKHRFTISRDTSKNTVYLQMNSLRAEDTAVYFCARDIGISYYIGVSLWGQGTLVTVSS VL: EIVMTQSPSTLSASVGDRVIITCQASQSIGTRLSWYQQKPGKAPKLLIYGASKLATGVPSRFSGSGSGAEFTLTISSLQPDDFATYYCLGEYSYTTTDGIAFGQGTKLTVL"
5,binds,"MYT11141 (antibody, V domains shown, MYT9412 HC variant) VH: EVQLVESGGGLVQPGGSLRLSCTASGFSLSTYAMSWVRQAPGKGLEWVGMIYINDNTYYASWAKGRFTISRDTSKNTVYLQMNSLRAEDTAVYFCARDIGISYYIGVSHWGQGTLVTVSS VL: EIVMTQSPSTLSASVGDRVIITCQASQSIGTRLSWYQQKPGKAPKLLIYGASKLATGVPSRFSGSGSGAEFTLTISSLQPDDFATYYCLGEYSYTTTDGIAFGQGTKLTVL"
6,binds,"MYT11148 (antibody, V domains shown, MYT9412 LC variant) VH: EVQLVESGGGLVQPGGSLRLSCTASGFSLSTYAMSWVRQAPGKGLEWVGMIYINDNTYYASWAKGRFTISRDTSKNTVYLQMNSLRAEDTAVYFCARDIGISYYIGVSLWGQGTLVTVSS VL: EIVMTQSPSTLSASVGDRVIITCQASHSIGTRLSWYQQKPGKAPKLLIYGASKLATGVPSRFSGSGSGAEFTLTISSLQPDDFATYYCLGEYSYTTTDGIAFGQGTKLTVL"
7,binds,"MYT11122 (antibody, V domains shown, MYT9412 HC variant) VH: EVQLVESGGGLVQPGGSLRLSCTASGFSLSTYAMSWVRQAPGKGLEWVGMIYINDNTYYHSWAKGRFTISRDTSKNTVYLQMNSLRAEDTAVYFCARDIGISYYIGVSLWGQGTLVTVSS VL: EIVMTQSPSTLSASVGDRVIITCQASQSIGTRLSWYQQKPGKAPKLLIYGASKLATGVPSRFSGSGSGAEFTLTISSLQPDDFATYYCLGEYSYTTTDGIAFGQGTKLTVL"
8,binds,"MYT11138 (antibody, V domains shown, MYT9412 HC variant) VH: EVQLVESGGGLVQPGGSLRLSCTASGFSLSTYAMSWVRQAPGKGLEWVGMIYINDNTYYASWAKGRFTISRDTSKNTVYLQMNSLRAEDTAVYFCARDIGISYYIHVSLWGQGTLVTVSS VL: EIVMTQSPSTLSASVGDRVIITCQASQSIGTRLSWYQQKPGKAPKLLIYGASKLATGVPSRFSGSGSGAEFTLTISSLQPDDFATYYCLGEYSYTTTDGIAFGQGTKLTVL"
9,binds,"MYT11140 (antibody, V domains shown, MYT9412 HC variant) VH: EVQLVESGGGLVQPGGSLRLSCTASGFSLSTYAMSWVRQAPGKGLEWVGMIYINDNTYYASWAKGRFTISRDTSKNTVYLQMNSLRAEDTAVYFCARDIGISYYIGVHLWGQGTLVTVSS VL: EIVMTQSPSTLSASVGDRVIITCQASQSIGTRLSWYQQKPGKAPKLLIYGASKLATGVPSRFSGSGSGAEFTLTISSLQPDDFATYYCLGEYSYTTTDGIAFGQGTKLTVL"
10,binds,"MYT11147 (antibody, V domains shown, MYT9412 LC variant) VH: EVQLVESGGGLVQPGGSLRLSCTASGFSLSTYAMSWVRQAPGKGLEWVGMIYINDNTYYASWAKGRFTISRDTSKNTVYLQMNSLRAEDTAVYFCARDIGISYYIGVSLWGQGTLVTVSS VL: EIVMTQSPSTLSASVGDRVIITCQAHQSIGTRLSWYQQKPGKAPKLLIYGASKLATGVPSRFSGSGSGAEFTLTISSLQPDDFATYYCLGEYSYTTTDGIAFGQGTKLTVL"
11,binds,"MYT11149 (antibody, V domains shown, MYT9412 LC variant) VH: EVQLVESGGGLVQPGGSLRLSCTASGFSLSTYAMSWVRQAPGKGLEWVGMIYINDNTYYASWAKGRFTISRDTSKNTVYLQMNSLRAEDTAVYFCARDIGISYYIGVSLWGQGTLVTVSS VL: EIVMTQSPSTLSASVGDRVIITCQASQHIGTRLSWYQQKPGKAPKLLIYGASKLATGVPSRFSGSGSGAEFTLTISSLQPDDFATYYCLGEYSYTTTDGIAFGQGTKLTVL"
12,binds,"MYT11126 (antibody, V domains shown, MYT9412 HC variant) VH: EVQLVESGGGLVQPGGSLRLSCTASGFSLSTYAMSWVRQAPGKGLEWVGMIYINDNTYYASWAHGRFTISRDTSKNTVYLQMNSLRAEDTAVYFCARDIGISYYIGVSLWGQGTLVTVSS VL: EIVMTQSPSTLSASVGDRVIITCQASQSIGTRLSWYQQKPGKAPKLLIYGASKLATGVPSRFSGSGSGAEFTLTISSLQPDDFATYYCLGEYSYTTTDGIAFGQGTKLTVL"
13,binds,"MYT11123 (antibody, V domains shown, MYT9412 HC variant) VH: EVQLVESGGGLVQPGGSLRLSCTASGFSLSTYAMSWVRQAPGKGLEWVGMIYINDNTYYAHWAKGRFTISRDTSKNTVYLQMNSLRAEDTAVYFCARDIGISYYIGVSLWGQGTLVTVSS VL: EIVMTQSPSTLSASVGDRVIITCQASQSIGTRLSWYQQKPGKAPKLLIYGASKLATGVPSRFSGSGSGAEFTLTISSLQPDDFATYYCLGEYSYTTTDGIAFGQGTKLTVL"
14,binds,"MYT11139 (antibody, V domains shown, MYT9412 HC variant) VH: EVQLVESGGGLVQPGGSLRLSCTASGFSLSTYAMSWVRQAPGKGLEWVGMIYINDNTYYASWAKGRFTISRDTSKNTVYLQMNSLRAEDTAVYFCARDIGISYYIGHSLWGQGTLVTVSS VL: EIVMTQSPSTLSASVGDRVIITCQASQSIGTRLSWYQQKPGKAPKLLIYGASKLATGVPSRFSGSGSGAEFTLTISSLQPDDFATYYCLGEYSYTTTDGIAFGQGTKLTVL"
15,binds,"MYT11124 (antibody, V domains shown, MYT9412 HC variant) VH: EVQLVESGGGLVQPGGSLRLSCTASGFSLSTYAMSWVRQAPGKGLEWVGMIYINDNTYYASHAKGRFTISRDTSKNTVYLQMNSLRAEDTAVYFCARDIGISYYIGVSLWGQGTLVTVSS VL: EIVMTQSPSTLSASVGDRVIITCQASQSIGTRLSWYQQKPGKAPKLLIYGASKLATGVPSRFSGSGSGAEFTLTISSLQPDDFATYYCLGEYSYTTTDGIAFGQGTKLTVL"
16,binds,"MYT11145 (antibody, V domains shown, MYT9412 LC variant) VH: EVQLVESGGGLVQPGGSLRLSCTASGFSLSTYAMSWVRQAPGKGLEWVGMIYINDNTYYASWAKGRFTISRDTSKNTVYLQMNSLRAEDTAVYFCARDIGISYYIGVSLWGQGTLVTVSS VL: EIVMTQSPSTLSASVGDRVIITCHASQSIGTRLSWYQQKPGKAPKLLIYGASKLATGVPSRFSGSGSGAEFTLTISSLQPDDFATYYCLGEYSYTTTDGIAFGQGTKLTVL"
17,binds,"MYT11135 (antibody, V domains shown, MYT9412 HC variant) VH: EVQLVESGGGLVQPGGSLRLSCTASGFSLSTYAMSWVRQAPGKGLEWVGMIYINDNTYYASWAKGRFTISRDTSKNTVYLQMNSLRAEDTAVYFCARDIGISHYIGVSLWGQGTLVTVSS VL: EIVMTQSPSTLSASVGDRVIITCQASQSIGTRLSWYQQKPGKAPKLLIYGASKLATGVPSRFSGSGSGAEFTLTISSLQPDDFATYYCLGEYSYTTTDGIAFGQGTKLTVL"
18,binds,"MYT11154 (antibody, V domains shown, MYT9412 LC variant) VH: EVQLVESGGGLVQPGGSLRLSCTASGFSLSTYAMSWVRQAPGKGLEWVGMIYINDNTYYASWAKGRFTISRDTSKNTVYLQMNSLRAEDTAVYFCARDIGISYYIGVSLWGQGTLVTVSS VL: EIVMTQSPSTLSASVGDRVIITCQASQSIGTRHSWYQQKPGKAPKLLIYGASKLATGVPSRFSGSGSGAEFTLTISSLQPDDFATYYCLGEYSYTTTDGIAFGQGTKLTVL"
19,binds,"MYT11125 (antibody, V domains shown, MYT9412 HC variant) VH: EVQLVESGGGLVQPGGSLRLSCTASGFSLSTYAMSWVRQAPGKGLEWVGMIYINDNTYYASWHKGRFTISRDTSKNTVYLQMNSLRAEDTAVYFCARDIGISYYIGVSLWGQGTLVTVSS VL: EIVMTQSPSTLSASVGDRVIITCQASQSIGTRLSWYQQKPGKAPKLLIYGASKLATGVPSRFSGSGSGAEFTLTISSLQPDDFATYYCLGEYSYTTTDGIAFGQGTKLTVL"
